Here are results for two molecules from publication PMC7141386, “Extracellular CIRP induces macrophage endotoxin tolerance through IL-6R–mediated STAT3 activation” (JCI Insight, 2020).

Positions count from the first letter of the chain named.

Test [1] addresses T1, recombinant human IL-6R alpha protein Leu20-Asp358 (human, UniProt P08887 20-358).
T1 construct: human IL-6 receptor alpha, Leu20-Asp358; no tags in the Biacore assay; also called rhIL-6R; IL-6 receptor; source: bought: R&D Systems, Bio-Techne; Spodoptera frugiperda Sf21, baculovirus-derived
T1 sequence (looked up): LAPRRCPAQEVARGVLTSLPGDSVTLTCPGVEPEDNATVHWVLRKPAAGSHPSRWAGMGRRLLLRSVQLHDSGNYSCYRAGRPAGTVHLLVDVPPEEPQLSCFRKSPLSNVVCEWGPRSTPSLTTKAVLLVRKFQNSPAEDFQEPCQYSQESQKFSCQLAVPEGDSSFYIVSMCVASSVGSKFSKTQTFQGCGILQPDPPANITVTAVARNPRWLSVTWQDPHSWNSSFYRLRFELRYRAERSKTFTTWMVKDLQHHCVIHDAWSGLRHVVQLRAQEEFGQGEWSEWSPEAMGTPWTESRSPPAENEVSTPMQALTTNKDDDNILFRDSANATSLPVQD
The test is described as follows: SPR; Biacore 3000; rhIL-6R immobilised on a CM5 chip (amine coupling, 10 mM sodium acetate pH 4.5); rhCIRP as analyte 0-1.0 uM; 1x PBS with 0.01% Tween-20, pH 7.4; 30 uL/min, 25°C; global fit to the Langmuir model for 1:1 binding. To be noted: both partners purified.

The target of test [2] is T2, mouse IL-6 receptor on peritoneal macrophages (mouse (endogenous in peritoneal …, UniProt P22272 20-460)).
T2 construct: IL-6 receptor alpha, mouse, endogenous on peritoneal macrophages, detected with goat anti-mouse IL-6R antibody; also called IL-6Rα; source: endogenous, on murine peritoneal macrophages
T2 sequence (looked up): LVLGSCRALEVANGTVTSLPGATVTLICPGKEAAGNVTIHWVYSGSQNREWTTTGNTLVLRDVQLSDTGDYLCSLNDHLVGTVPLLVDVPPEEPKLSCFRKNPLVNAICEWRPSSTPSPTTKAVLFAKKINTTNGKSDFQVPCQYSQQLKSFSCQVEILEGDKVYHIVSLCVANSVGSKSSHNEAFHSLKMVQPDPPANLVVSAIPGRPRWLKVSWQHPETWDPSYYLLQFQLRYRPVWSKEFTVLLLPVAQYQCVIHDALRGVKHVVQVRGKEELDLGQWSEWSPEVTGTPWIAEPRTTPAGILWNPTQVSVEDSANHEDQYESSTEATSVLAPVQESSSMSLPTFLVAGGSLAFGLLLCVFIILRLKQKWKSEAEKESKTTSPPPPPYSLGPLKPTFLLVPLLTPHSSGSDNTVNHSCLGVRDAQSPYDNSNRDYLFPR
Put plainly: FRET or BRET; peritoneal macrophages in a 96-well plate treated with rmCIRP for 10 minutes at 4°C, fixed with 4% paraformaldehyde, stained with anti-CIRP and anti-IL-6R or anti-CD11b antibodies and Cy3- and Cy5-labelled secondary antibodies; FRET units from cell-associated fluorescence (Biotek Synergy Neo2). To be noted: one partner purified. (BRET reads energy transfer from a luciferase to a nearby fluorophore.)

B1: recombinant human CIRP (cold-inducible RNA-binding protein) (natural protein, UniProt Q14011 1-172, looked up)
chain: MASDEGKLFVGGLSFDTNEQSLEQVFSKYGQISEVVVVKDRETQRSRGFGFVTFENIDDAKDAMMAMNGKSVDGRQIRVDQAGKSSDNRSRGYRGGSAGGRGFFRGGRGRGRGFSRGGGDRGYGGNRFESRSGGYGGSRDYYSSRSQSGGYSDRSSGGSYRDSYDSYATHNE
notes: also called rhCIRP; eCIRP; source: bought: Origene
Turning to B1, the Kd (in general, the concentration at which binding is half-saturated) in test [1] was 98 nM.

B2: recombinant murine CIRP (cold-inducible RNA-binding protein) (natural protein, mouse, UniProt P60824 1-172, looked up)
chain: B1 chain with S21A, G109S, N126G, S143A, S148G, G150S, S152G, D153Y
notes: also called rmCIRP
Consider B2, for which the “fold increase in FRET units against the negative control CD11b” value in test [2] worked out at 17 fold.
